These results are taken from PMC5102900, “ROS-Mediated Inhibition of S-nitrosoglutathione Reductase Contributes to the Activation of Anti-oxidative Mechanisms” (Frontiers in Plant Science, 2016).

Usually stoichiometry N stands for the number of molecules, sites or subunits per partner or assembly.

The series concerns the molecule itself. The experiment in a line: SEC-MALS; size exclusion chromatography (Superdex 200 10/300 GL, 4°C) with static light scattering (right-angle, Viscotek TDA 305, 30°C); 50 mM Tris-HCl pH 8.0, 200 mM NaCl, with 10 mM DTT (reduced sample) or without (sample oxidized by 1 mM H2O2); approximately 1.5 mg/ml, 100 ul applied. A general note: SEC sorts molecules by how far they enter the pores of the column.

B1: Arabidopsis thaliana S-nitrosoglutathione reductase (GSNOR), recombinant His6-GSNOR, reduced (enzyme, UniProt Q96533 1-379, looked up)
chain: MATQGQVITCKAAVAYEPNKPLVIEDVQVAPPQAGEVRIKILYTALCHTDAYTWSGKDPEGLFPCILGHEAAGIVESVGEGVTEVQAGDHVIPCYQAECRECKFCKSGKTNLCGKVRSATGVGIMMNDRKSRFSVNGKPIYHFMGTSTFSQYTVVHDVSVAKIDPTAPLDKVCLLGCGVPTGLGAVWNTAKVEPGSNVAIFGLGTVGLAVAEGAKTAGASRIIGIDIDSKKYETAKKFGVNEFVNPKDHDKPIQEVIVDLTDGGVDYSFECIGNVSVMRAALECCHKGWGTSVIVGVAASGQEISTRPFQLVTGRVWKGTAFGGFKSRTQVPWLVEKYMNKEIKVDEYITHNLTLGEINKAFDLLHEGTCLRCVLDTSK
notes: S-nitrosoglutathione reductase (GSNOR; glutathione-dependent formaldehyde dehydrogenase, class III alcohol dehydrogenase), Arabidopsis thaliana, At5g43940; Expressed from pDEST17 (Gateway); Run in buffer with 10 mM DTT; also called AtGSNOR; GSNO-reductase; source: E. coli BL21 DE3 pLysS, purified (Ni-NTA under reducing condition, followed by Äkta purification); not shown: His6, N-terminal, kept
For the protein B1, the “stoichiometry N” value was 2.

B2: Arabidopsis thaliana S-nitrosoglutathione reductase (GSNOR), recombinant His6-GSNOR, oxidized with 1 mM H2O2 (enzyme, UniProt Q96533 1-379, looked up)
chain: MATQGQVITCKAAVAYEPNKPLVIEDVQVAPPQAGEVRIKILYTALCHTDAYTWSGKDPEGLFPCILGHEAAGIVESVGEGVTEVQAGDHVIPCYQAECRECKFCKSGKTNLCGKVRSATGVGIMMNDRKSRFSVNGKPIYHFMGTSTFSQYTVVHDVSVAKIDPTAPLDKVCLLGCGVPTGLGAVWNTAKVEPGSNVAIFGLGTVGLAVAEGAKTAGASRIIGIDIDSKKYETAKKFGVNEFVNPKDHDKPIQEVIVDLTDGGVDYSFECIGNVSVMRAALECCHKGWGTSVIVGVAASGQEISTRPFQLVTGRVWKGTAFGGFKSRTQVPWLVEKYMNKEIKVDEYITHNLTLGEINKAFDLLHEGTCLRCVLDTSK
modifications: oxidized by 1 mM H2O2 (oxidative modifications of cysteine residues; which residues at this concentration is not stated)
notes: S-nitrosoglutathione reductase (GSNOR; glutathione-dependent formaldehyde dehydrogenase, class III alcohol dehydrogenase), Arabidopsis thaliana, At5g43940; Same construct as m1, treated with H2O2 (200 ug GSNOR, 1 mM H2O2) and run without DTT; Mass spectrometry at 0.5 and 5 mM H2O2 found reversible and sulfinic or sulfonic modifications on most detected cysteines, among them Cys47 and Cys177; also …
Consider B2, for which the “stoichiometry N” value turned out to be 2.
